# Where no end group is shown, it is not given here.
# T1: XBP1 (Homo sapiens, UniProt P17861)
# T1 construct: made in house
# T1 sequence (P17861 70-133 limits assumed): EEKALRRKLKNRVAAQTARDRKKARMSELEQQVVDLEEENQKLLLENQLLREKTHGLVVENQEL
# T2: Activating Transcription Factor 4 (ATF4) bZIP construct, C-terminally fluoresceinated (human, UniProt P18848 278-351, fluorescein at the C-terminus)
# T2 construct: source: previously described, donated by A.W. Reinke [18]
# T2 sequence (looked up): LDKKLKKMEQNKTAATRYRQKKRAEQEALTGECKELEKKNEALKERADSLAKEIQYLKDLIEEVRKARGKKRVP
# T3: ATF4 (Homo sapiens, UniProt P18848)
# T3 construct: made in house
# T3 sequence (P18848 278-341 limits assumed): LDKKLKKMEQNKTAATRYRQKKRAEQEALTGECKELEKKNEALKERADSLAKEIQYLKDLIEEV
# B1: JUN-d1, rhodamine-labelled at the C-terminus (designed binder)
# chain: GESKEYKKGSGSSIAATLEKEEANLEKMNKKLAAEIESLLKEKDKLESVLNYHEGC(Rhodamine Red C2‑maleimide)
# notes: solubility linker after the His tag; added at the C-terminus for labelling; source: E. coli RP3098, purified (Ni-NTA under denaturing conditions, reverse-phase HPLC)
# B2: ATF4-d1, rhodamine-labelled at the C-terminus (designed binder)
# chain: GESKEYKKGSGSNQIKTLRTRLSKLRKDNLQLEKDIANLERKAKDLRAEKEQLEYELGC(Rhodamine Red C2‑maleimide)
# notes: solubility linker after the His tag; added at the C-terminus for labelling; also used for the homodimer row; source: E. coli RP3098, purified (Ni-NTA under denaturing conditions, reverse-phase HPLC)
# B3: ATF6B: native human bZIP coiled coil (protein)
# chain: MAELMLLSEIADPTRFFTDNLLSPEDWGLQNSTLYSGLDEVAEEQTQLFRCPEQDVPFDGSSLDVGMDVSPSEPPWELLPIFPDLQVKSEPSSPCSSSSLSSESSRLSTEPSSEALGVGEVLHVKTESLAPPLCLLGDDPTSSFETVQINVIPTSDDSSDVQTKIEPVSPCSSVNSEASLLSADSSSQAFIGEEVLEVKTESLSPSGCLLWDVPAPSLGAVQISMGPSLDGSSGKALPTRKPPLQPKPVVLTTVPMPSRAVPPSTTVLLQSLVQPPPVSPVVLIQGAIRVQPEGPAPSLPRPERKSIVPAPMPGNSCPPEVDAKLLKRQQRMIKNRESACQSRRKKKEYLQGLEARLQAVLADNQQLRRENAALRRRLEALLAENSELKLGSGNRKVVCIMVFLLFIAFNFGPVSISEPPSAPISPRMNKGEPQPRRHLLGFSEQEPVQGVEPLQGSSQGPKEPQPSPTDQPSFSNLTAFPGGAKELLLRDLDQLFLSSDCRHFNRTESLRLADELSGWVQRHQRGRRKIPQRAQERQKSQPRKKSPPVKAVPIQPPGPPERDSVGQLQLYRHPDRSQPAFLDAIDRREDTFYVVSFRRDHLLLPAISHNKTSRPKMSLVMPAMAPNETLSGRGAPGDYEEMMQIECEVMDTRVIHIKTSTVPPSLRKQPSPTPGNATGGPLPVSAASQAHQASHQPLYLNHP
# modifications: fluorescein at the C-terminus (FRET donor) or TAMRA (FRET acceptor), by assay
# notes: native human bZIP coiled coil
# B4: FOS: native human bZIP coiled coil (protein)
# chain: EEKRRIRRERNKMAAAKCRNRRRELTDTLQAETDQLEDEKSALQTEIANLLKEKEKLEFILAAH
# modifications: C-terminal TAMRA when used as FRET acceptor
# Legend:
# XBP1 = biological target: T1, XBP1; conditions: native human bZIP binding XBP1; cited from earlier work
# From the text: We chose five human bZIP proteins as targets: X-box binding protein 1 (XBP1), JUN, Activating Transcription Factor (ATF) 3, ATF4 and ATF5. These are proteins for which an interaction partner was designed in prior work, but either the affinity or the specificity of the design left room for improvement. […] For example, XBP1-d1 was composed of heptads from N. vectensis, C. elegans and C. intestinalis proteins, and from previously designed bZIP binders. We also note that our four designs were composed of 24 distinct, non-recurring heptads. Thus, our design al ... || We compared the new designs to designed peptides targeting XBP1 and JUN reported by Grigoryan et al. for which FRET measurements were available. […] It should be noted that XBP1 presents a challenging target because three of its core a positions are occupied by asparagines. A matching asparagi ...
# [1] = biological target: partner bZIP coiled coil (Protein2); conditions: Protein2 = CI12 (CI), inter; 5000 assigned if Kd >5,000 nM or no binding; cited from earlier work
# Method: Supplement pcbi.1004046.s020.csv, table | column: Kd || Fig 4 Designed bZIP-binding peptides inhibit interactions of native bZIP dimers. […] The dissociation constants at the indicated temperatures are Kd ≤ 1 nM for FOS-JUN, Kd ≤1 nM for XBP1-CREBZF, and Kd = 60 nM for ATF4-FOS, according to [18]. Fluorescence intensities were measured at both 37°C and 23°C, a ...
# [2] = biological target: T4, JUN bZIP construct, C-terminally fluoresceinated (human, UniProt P05412 252-315, fluorescein at the C-terminus); test: FRET or BRET; direct-binding FRET at 37°C; 10 nM fluorescein-labelled bZIP (donor), rhodamine-labelled design (acceptor) titrated 0 to 1 μM; 150 mM KCl, 50 mM potassium phosphate pH 7.4, 0.1% Tween-20, 0.1% BSA; conditions: both partners purified
# T4 construct: source: previously described, donated by A.W. Reinke [18]
# T4 sequence (P05412 252-315): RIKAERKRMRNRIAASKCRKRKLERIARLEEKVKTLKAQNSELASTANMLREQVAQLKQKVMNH
# [3] = biological target: the molecule itself; test: FRET or BRET; homodimer Kd of the designed peptide determined by FRET, 23°C; dimer to monomers
# [4] = biological target: T2, Activating Transcription Factor 4 …; test: FRET or BRET; direct-binding FRET at 37°C; 10 nM fluorescein-labelled bZIP (donor), rhodamine-labelled design (acceptor) titrated 0 to 1 μM; 150 mM KCl, 50 mM potassium phosphate pH 7.4, 0.1% Tween-20, 0.1% BSA; conditions: both partners purified
# ATF4 = biological target: T3, ATF4; conditions: native human bZIP binding ATF4; cited from earlier work
# From the text: For example, XBP1-d1 was composed of heptads from N. vectensis, C. elegans and C. intestinalis proteins, and from previously designed bZIP binders. We also note that our four designs were composed of 24 distinct, non-recurring heptads. Thus, our design al ...
# JUN = JUN (Homo sapiens, UniProt P05412); set-up: made in house; conditions: native human bZIP binding JUN; cited from earlier work
# Sequence of JUN (P05412 252-315 limits assumed): as the sequence (P05412 252-315) above
# From the text: For most bZIP pairs, binding of the N-terminally labeled designed peptide to a C-terminally labeled target gave very little signal, and such curves could rarely be fit to provide Kd values (S9–S12 Tables). In a few cases where interactions could be quantified with both N- and C-terminal dye labeling, we observed that the affinity of N-terminally labeled designs for C-terminally labeled targets was somewhat weaker than the affinity of C-terminally labeled designs (S5–S12 Tables). Enhanced affinities attributable to dye interactions have been reported previously. […] For example, XBP1-d1 was composed of heptads from N. vectensis, C. elegans and C. intestinalis proteins, and from previously designed bZIP binders. We also note that our four designs were composed of 24 distinct, non-recurring heptads. Thus, our design al ... || We compared the new designs to designed peptides targeting XBP1 and JUN reported by Grigoryan et al. for which FRET measurements were available. […] It should be noted that XBP1 presents a challenging target because three of its core a positions are occupied by asparagines. A matching asparagi ...
molecule,measurement,setting,value
ATF6: native human bZIP coiled coil,Kd,XBP1,1 nM
same,Kd,[1],5000 nM
B1,Kd,[2],5.8 ± 0.7 nM
B2,Kd,[3],36.3 nM
same,Kd,[4],9.3 ± 2.3 nM
B3,Kd,ATF4,≥ 5000 nM
B4,Kd,JUN,1 nM

# Source: article PMC4335062, “Data-Driven Prediction and Design of bZIP Coiled-Coil Interactions” (PLoS Computational Biology, 2015)
